Results as given in the supplement of paper PMC7877785.
± gives the uncertainty stated by the source.

Assay: self-splicing fitness, log relative to wild type (ln ratio); higher = more splicing; Tetrahymena group I intron in knt gene, E. coli kanamycin selection, DiMSum; sequences stand for … in CUCUCU…GGAGGGAAAAGUUAUCAGGCAUGCACCUGGUAGCUAGUCUUUAAACCAAUAGAUUGCAUCGGUUUAAAAGGCAAGACCGUCAAAUUGCGGGAAAGGGGUCAACAGCCGUUCAGUACCAAGUCUCAGGGGAAACUUUGAGAUGGCCUUGCAAAGGGUAUGGUAAUAAGCUGACGGACAUGGUCCUAACCACGCAGCCAAGUCCUAAGUCAACAGAUCUUCUGUUGAUAUGGAUGCAGUUCACAGACUAAAUGUCGGUCGGGGAAGAUGUAUUCUUCUCAUAAGAUAUAGUCGGACCUCUCCUUAAUGGGAGCUAGCGGAUGAAGUGAUGCAACACUGGAGCCGCUGGGAACUAAUUUGUAUGCGAAAGUAUAUUGAUUAGUUUUGGAGUACUCGUGGUCG
How it was run: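 Six replicate transformations of E. coli BL21(DE3) with a pET-22b(+) library were grown overnight at 37°C or 30°C. The library randomised all eight P1ex-region intron nucleotides, the intron lying in the knt kanamycin-resistance gene, and plates were LB agar with or without 25 μg/mL kanamycin plus 100 μg/mL carbenicillin, 50 μM IPTG and 0.2% rhamnose. Pooled colonies were amplicon-sequenced on an Illumina HiSeq 2500, and fitness is the DiMSum error-weighted combination of wild-type-normalised replicate fold changes, kanamycin versus none.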

Sequence	self-splicing fitness (ln) (30 °C)	self-splicing fitness (ln) (37 °C)
CAAGAGCAAUAUUACGUCGG	-1.4 ± 0.087	-1.37 ± 0.11
CGCAAGCAAUAUUACGAAGG	-1.28 ± 0.098	-0.75 ± 0.15
UAUCAGCAAUAUUACGACCA	-0.0276 ± 0.12	0.439 ± 0.16
AAACAGCAAUAUUACGUUUA	-2.11 ± 0.1	-0.623 ± 0.078
UAGGAGCAAUAUUACGCUUG	-1.18 ± 0.32	0.65 ± 0.36
AAGCAGCAAUAUUACGCUUA	-1.9 ± 0.15	-1.24 ± 0.14
GUUCAGCAAUAUUACGCUGG	-4.05 ± 0.27	-1.53 ± 0.13
CCACAGCAAUAUUACGCUAG	-3.27 ± 0.12	-1.36 ± 0.1
ACGUAGCAAUAUUACGGUAG	-3.11 ± 0.15	-2.25 ± 0.2
GGCCAGCAAUAUUACGUCAC	-2.59 ± 0.34	
AUAAAGCAAUAUUACGACAG	-1.2 ± 0.1	-1.15 ± 0.12
ACACAGCAAUAUUACGUACU	-0.335 ± 0.05	0.175 ± 0.065
CCGCAGCAAUAUUACGAACG	-0.44 ± 0.085	0.193 ± 0.1
AAGGAGCAAUAUUACGGCUU	-2.58 ± 0.25	-1.64 ± 0.28
AGUAAGCAAUAUUACGUCUC	-3.31 ± 0.25	-2.96 ± 0.47
GUCCAGCAAUAUUACGUGCA	-1.55 ± 0.09	-0.54 ± 0.1
UAAUAGCAAUAUUACGGCAC	-2.86 ± 0.22	-1.48 ± 0.19
CUCUAGCAAUAUUACGCACA	-3.24 ± 0.4	-3.82 ± 0.46
UCGUAGCAAUAUUACGGCGU	-3.46 ± 0.34	-1.6 ± 0.22
CUGCAGCAAUAUUACGUGAU	-1.19 ± 0.072	-0.758 ± 0.12
UAUCAGCAAUAUUACGCUCC	-1 ± 0.29	-0.504 ± 0.31
CGUUAGCAAUAUUACGCAUG	-1.13 ± 0.12	-0.626 ± 0.17
CGUUAGCAAUAUUACGCUGU	-2.88 ± 0.22	-2.71 ± 0.33
CGUCAGCAAUAUUACGGUUU	-2.39 ± 0.098	-1.97 ± 0.097
AGUGAGCAAUAUUACGCGGU	-3.93 ± 0.25	-3.01 ± 0.23

Sequence	self-splicing fitness (ln) (30 °C)	self-splicing fitness (ln) (37 °C)
AGGUAGCAAUAUUACGCAAU	-1.959 ± 0.017	-1.03 ± 0.034
CGAGAGCAAUAUUACGGACG	-1.25 ± 0.23	-0.913 ± 0.42
GGGAAGCAAUAUUACGCUUG	-1.61 ± 0.21	-0.729 ± 0.2
UUUAAGCAAUAUUACGUGCU	-3.09 ± 0.18	-1.41 ± 0.15
GACUAGCAAUAUUACGCGGA	-1.55 ± 0.13	-0.984 ± 0.11
UAGAAGCAAUAUUACGCUAU	-4.05 ± 0.27	-3.13 ± 0.27
GUGUAGCAAUAUUACGGUGA	-1.45 ± 0.11	-0.916 ± 0.14
CGCCAGCAAUAUUACGACCC	-1.84 ± 0.21	-1.46 ± 0.39
ACCAAGCAAUAUUACGCGCU	-0.723 ± 0.07	0.206 ± 0.089
UAUUAGCAAUAUUACGCAAU	-2.79 ± 0.28	-1.77 ± 0.27
UUAAAGCAAUAUUACGAUGC	-2.82 ± 0.11	-2.2 ± 0.083
CUGUAGCAAUAUUACGUUCG	-0.00257 ± 0.13	0.798 ± 0.14
AUAUAGCAAUAUUACGAUCC	-0.6 ± 0.16	-0.578 ± 0.28
UUCCAGCAAUAUUACGCGGU	-3.42 ± 0.18	-2.54 ± 0.2
UGCAAGCAAUAUUACGUGAA	-2.26 ± 0.1	-1.03 ± 0.11
AACAAGCAAUAUUACGAGCU	-0.919 ± 0.056	-0.357 ± 0.073
AAUAAGCAAUAUUACGCAUA	-1.59 ± 0.16	-0.617 ± 0.16
CUGGAGCAAUAUUACGACUA	-1.37 ± 0.28	-1.38 ± 0.31
ACGAAGCAAUAUUACGACGG	-1.2 ± 0.12	-0.994 ± 0.094
GGUUAGCAAUAUUACGAACG	-0.128 ± 0.21	-0.629 ± 0.44
AGCUAGCAAUAUUACGCCUG	-1.6 ± 0.13	-1.55 ± 0.17
UGUAAGCAAUAUUACGCAAA	-2.11 ± 0.16	-0.927 ± 0.13
CACCAGCAAUAUUACGGGAU	-3.34 ± 0.076	-1.9 ± 0.076
CAGAAGCAAUAUUACGGAGG	-1.91 ± 0.099	-1.2 ± 0.1
GUCAAGCAAUAUUACGCAAC	-4.34 ± 0.26	-2.36 ± 0.34

Sequence	self-splicing fitness (ln) (30 °C)	self-splicing fitness (ln) (37 °C)
ACAUAGCAAUAUUACGACGG	-1 ± 0.091	-0.32 ± 0.12
CCGCAGCAAUAUUACGGGGG	-3.71 ± 0.18	-3.2 ± 0.3
AGGUAGCAAUAUUACGGUUC	-2.769 ± 0.022	-1.51 ± 0.036
ACAUAGCAAUAUUACGUACC	-0.809 ± 0.17	0.0877 ± 0.2
UAGUAGCAAUAUUACGAAUG	-2.77 ± 0.16	-0.412 ± 0.13
AAUUAGCAAUAUUACGCGGA	-1.56 ± 0.16	-1.3 ± 0.12
CCUAAGCAAUAUUACGCAUA	-4.08 ± 0.28	-2.77 ± 0.27
CCCCAGCAAUAUUACGUCGC	-3.65 ± 0.18	-2.34 ± 0.2
GUAGAGCAAUAUUACGUUGU	-2.53 ± 0.3	-0.699 ± 0.29
GGCGAGCAAUAUUACGAACA	-1.16 ± 0.16	-0.12 ± 0.14
UGAGAGCAAUAUUACGACCA	-1.91 ± 0.14	-1.14 ± 0.21
UGGAAGCAAUAUUACGAUAC	-3.37 ± 0.49	-2.54 ± 0.48
GUCCAGCAAUAUUACGACAC	1.02 ± 0.18	0.572 ± 0.24
AGACAGCAAUAUUACGCUCG	-0.153 ± 0.076	0.136 ± 0.089
UUACAGCAAUAUUACGGGGG	-2.2 ± 0.14	-1.77 ± 0.15
GUCGAGCAAUAUUACGGCCC		-1.43 ± 0.4
GGUCAGCAAUAUUACGGUUA	-0.399 ± 0.081	0.53 ± 0.076
GUAAAGCAAUAUUACGUCUA	0.446 ± 0.11	0.0339 ± 0.13
UUCAAGCAAUAUUACGUUAC	-3.73 ± 0.36	-2.72 ± 0.23
GCGUAGCAAUAUUACGGGAU	-1.51 ± 0.14	-1.38 ± 0.21
GGAAAGCAAUAUUACGAACG	-0.51 ± 0.1	-0.441 ± 0.12
GCCUAGCAAUAUUACGGCCA	-1.81 ± 0.33	-1.52 ± 0.35
AAUGAGCAAUAUUACGUCGA	-3.56 ± 0.21	-2.84 ± 0.23
AAGAAGCAAUAUUACGUCGC	-3.47 ± 0.19	-2.2 ± 0.16
GUACAGCAAUAUUACGCGAU	-4.98 ± 0.46	-2.71 ± 0.26

Sequence	self-splicing fitness (ln) (30 °C)	self-splicing fitness (ln) (37 °C)
CUGAAGCAAUAUUACGAGGG	-2.03 ± 0.11	-1.25 ± 0.14
AUUCAGCAAUAUUACGAUUU	0.203 ± 0.088	0.898 ± 0.11
UAUUAGCAAUAUUACGCUAC	-2.5 ± 0.41	-1.15 ± 0.47
AGUAAGCAAUAUUACGUUAG	-1.71 ± 0.33	
CUGAAGCAAUAUUACGCGGC	-0.11 ± 0.081	0.053 ± 0.11
CAGAAGCAAUAUUACGAGAU	-3.23 ± 0.17	-2.44 ± 0.23
CGGAAGCAAUAUUACGUCCU	0.17 ± 0.12	0.626 ± 0.12
CUGUAGCAAUAUUACGGAUC	-3.93 ± 0.3	-3.45 ± 0.39
UGGUAGCAAUAUUACGAGAC	-1.69 ± 0.24	-2.71 ± 0.43
GCUUAGCAAUAUUACGCUAU	-2.31 ± 0.16	-1.38 ± 0.16
GAAAAGCAAUAUUACGAGAC	-2.59 ± 0.29	-0.985 ± 0.16
CUACAGCAAUAUUACGCUCU	-4.15 ± 0.25	-2.74 ± 0.29
GUUAAGCAAUAUUACGUGUG	-1.93 ± 0.093	-1.21 ± 0.098
AUCAAGCAAUAUUACGCUGA	-2.51 ± 0.13	-1.46 ± 0.12
UCAAAGCAAUAUUACGGGAU	-2.04 ± 0.16	-2.46 ± 0.25
GUUUAGCAAUAUUACGUGCG	-0.649 ± 0.11	-0.5 ± 0.11
GGUGAGCAAUAUUACGGAGA	-1.36 ± 0.37	
UGACAGCAAUAUUACGCAGU	-2.63 ± 0.15	-2.13 ± 0.27
GCGGAGCAAUAUUACGGGCC	-2.57 ± 0.42	
UCUGAGCAAUAUUACGCACC	-3.59 ± 0.45	
CUAUAGCAAUAUUACGACGC	-3.02 ± 0.36	-2.14 ± 0.38
AGACAGCAAUAUUACGAGUG	-4.11 ± 0.16	-1.9 ± 0.092
